Laboratory results: US12551573B2, “Compositions and methods for the targeting of PCSK9” (Scribe Therapeutics Inc., priority 2022, dated 2026)

B1: DOMAIN_13331 (protein, listed as Macaca fascicularis)
chain: FQGSISFKDVTVGFTQEEWQHLDPSQRALYRDVMLENYSNLVSVGYCVHKPEVISRLEQGEEPWRLEEEFPSQSFPVWTAD
B2: DOMAIN_16688 (protein)
chain: SQEQVSFKDVCVDFTREEWYLLDPAQKILYRDVILENYSHLVSVGNCITKPEVIFKIEQGEEPWILEERFPKQCCSERNWK
modifications: Lipotes vexillifer
B3: DOMAIN_13539 (protein, listed as Gorilla sp.)
chain: CYQDSVTFDDVAVDFTQEEWTLLDSTQRSLYSDVMLENYKNLATVGGQIIKPSLISWLEQEESRTVQGGVLRGRKTQWRGT
B4: DOMAIN_17317 (protein, listed as Otolemur garnettii)
chain: SQASVSFKDVNVEFTQDEWQQMGPAQRNLYRDVMLENYSNLVSVGYCIFKPKVIFRLEQGEEPWSSEEEFSSQRRPKNYRD
B5: DOMAIN_11908 (protein, listed as Canis lupus)
chain: CEGSVSFEDVTMDFSREEWQQLDPAQRCLYQDVMLEIYSHLLFVGYNIPNPEIISRMEKGEEPWMREIQLPHQRHRERAFG
B6: DOMAIN_12057 (protein)
chain: LLESVTFGDVAVVFSRDEWLHLDAAQRSLYREVMLENYSALVSLGIPLSIPKLICQLQQGEDPCMVEREIPQDVCLGFKTW
modifications: Muntiacus muntjak
B7: DOMAIN_12285 (protein, listed as Gorilla sp.)
chain: EPGAVSFADVAVYFCREEWGCLRPAQRTLYRDVMRETYGHLSALGIGGKKPALISWVEEEAELWGPAAQDPEVAKCPTQTD
B8: DOMAIN_10807 (protein, listed as Erinaceus europaeus)
chain: SQASVSFKDVTVEFTQDEWRLMSSAQRTLYREVMLENYSHLISMGYCSTKPELIFALEQKDFRESILERESLSTIPPEDFQ
B9: DOMAIN_10974 (protein)
chain: AQMLVTFEEVAVYFTQGQGALLGPAQRALYRDVMQENYEMVTSLGFSLPKPELISRLERGEEPWVPDLQACEKRESLRGAR
modifications: Chelonia mydas
B10: DOMAIN_12206 (protein, listed as Bos mutus)
chain: QEQVSFKDVCVDFTQEEWYLLDPAQKILYRDVILENYSHLVSVGNCITKPEVIFKIEQGEEPWILEERFPKQWHSGKSYKY
B11: DOMAIN_11321 (protein)
chain: GKELLSFEDVAMYFTREEWGHLNLGQKDLYRDVMLENYRNMVLLGFQFPKPEVICQLENWDEQWILDLPRAGNRKASGSAC
modifications: Nomascus leucogenys
B12: DOMAIN_12590 (protein, listed as Bos indicus)
chain: AQEPVTFNDVAVDFTQEEWGQLDLVQRTLYRDVMLETYGHLLSVGNQITKPEVISLLEQGEEPWSMEPAYPLQGTCPAPEI
B13: DOMAIN_11796 (protein, listed as Sus scrofa)
chain: FRGPVTFKDITVEFTQEEWQLLDNAQRTLYREVMQENYHHLISVGYCVNKPNAVFKLKQGKEPWILEVEFPRRNNPEDLWN
B14: DOMAIN_11312 (protein, listed as Sus scrofa)
chain: ALGSVTFRDVAVFFSQDEWLHLDSAQKTLYQEVMLENYSTLVSLGIPFSMPKVICQLQQGEDPCMVEGEALRDPCLDFKTW
B15: DOMAIN_11202 (protein)
chain: RQAFLAFGDVTVDFTQKEWRLLSPAQRALYREVTLENYSHLVSLGILHSKPELIRRLEQGEAPWGEERRRRPGPCAGIYAE
modifications: Nomascus leucogenys
B16: DOMAIN_11944 (protein, listed as Bos indicus)
chain: PQESVTFEDVAVNFSHEEWQCLTHAQRHLYKDVMLENYGNMVSLGFSFSKPPLISRLEQGTEPYVQDRQDWEFLSCSYPVS
B17: DOMAIN_11314 (protein, listed as Sus scrofa)
chain: VTFEDVALYFSRDEWRLLDEAQRRLYHDVMLQNFSLISSLGCCCGAEDAESPFQPSMFRDVSQARTLKAASLSQKNHPCEK
B18: DOMAIN_12114 (protein, listed as Neophocaena asiaeorientalis)
chain: VQASLSFEDVAVRFTWEEWQLLDPSQKDLYRNVMLENYCNLVSVGYQTPKPDSLFQLEQGEPPWRVEGAGQSQTCPEEIWE
B19: DOMAIN_11307 (protein, listed as Mandrillus leucophaeus)
chain: MAFEDVAVYFSQEEWGLLDTAQRALYRRVMLDNFALVASLGLSTSRPRVVIQLERGEEPWVPSRTDTILSRNTYRRRNPGS
B20: DOMAIN_11071 (protein, listed as Chrysochloris asiatica)
chain: SLEQVSFKDVCVDFTQEEWYLLDPAQKILYRDVILENYSNIVSVGHCGTKPEVIFKIEQGEEPWVLGEGFSSLQHPERNWK
B21: DOMAIN_11581 (protein, listed as Equus caballus)
chain: LQVSVSFEDVTVDFSREEWQHLDPAQRRLYRDVTLENYSHLCSVGYQVPKPEVIFKLEQGEGPWMLEGEAPHQSCSDDDIG
B22: DOMAIN_12231 (protein)
chain: PQESVAFEDVAVYFTAKEWDIMVPAERALYRDVMLENYEAVAFVVPPTSKPALVSHLEQGKESCFTRPQGVLCRNDWRAGL
modifications: Nomascus leucogenys
B23: DOMAIN_12550 (protein, listed as Ailuropoda melanoleuca)
chain: SDEAFSFEDLSVDFTQKEWQLLNPGQKDLYKDVMLENYSSLVSLGYEIMKPDVIFKLEQGEEPWIGDGEVPSSGCPADMSY
B24: DOMAIN_11988 (protein)
chain: MAFEDVAVHFSQEEWGLLDTAQRSLYRRVMLENFALLASLGLSVSRPHVVTQLERGEEPWVLSGVDVTLPQDAQRRPRRGS
modifications: Muntiacus muntjak
B25: DOMAIN_11097 (protein, listed as Mandrillus leucophaeus)
chain: KEASVAFRDVAVDFTQEEWRLLSPAQRTLHREVMLETYNHLVSLEIPSSKPKLIAQLERGEEPWREERKCSLDLCPESKPE
B26: DOMAIN_11049 (protein, listed as Neophocaena asiaeorientalis)
chain: PQGCAISEDVFVYFSREEWVLLDEDQRLLYRDVMLENFALLASLGIASSRSHLVTQLEQGEEPWMPAQVDMTPATEKEAQK
B27: DOMAIN_11359 (protein, listed as Sus scrofa)
chain: AQGQVTFEDVAVCFSQEEWGLLDETQRLLYRSVMLETFSLMASLGLTSSRTHDISQLERWGEPFLSASGAMRATRPTGCWH

Each molecule was assayed on HBEGF locus. Conditions: high-throughput screen of dXR repression of the HBEGF gene; change in abundance of each domain in the library before and after diphtheria toxin selection.
Format: cell-based, human
B1 was tested, and the “Log2 (fold change)” value was 3.5154.
With B2 the “Log2 (fold change)” value was 3.5601.
For B3, the “Log2 (fold change)” value was 3.4924.
B4 was tested, and the “Log2 (fold change)” value was 3.4551.

Same assay, conditions: repressor domain in dXR, repression of the HBEGF gene; abundance of domain in library after vs before diphtheria toxin selection
In the case of B5, the “Log2 (fold change)” value is reported as 2.894.
With B6 the “Log2 (fold change)” value was 2.0631.
With B7 the “Log2 (fold change)” value was 2.2573.
In the case of B8, the “Log2 (fold change)” value is reported as 3.5237.
With B9 the “Log2 (fold change)” value was 2.6444.
In the case of B10, the “Log2 (fold change)” value is reported as 2.9101.
For B11, the “Log2 (fold change)” value was 2.9718.
B12 was tested, and the “Log2 (fold change)” value was 2.5531.
B13 was tested, and the “Log2 (fold change)” value was 2.2811.
For B14, the “Log2 (fold change)” value was 3.8532.
B15 was tested, and the “Log2 (fold change)” value was 3.5851.
With B16 the “Log2 (fold change)” value was 3.2762.
With B17 the “Log2 (fold change)” value was 2.9575.
In the case of B18, the “Log2 (fold change)” value is reported as 3.3227.
B19 was tested, and the “Log2 (fold change)” value was 3.6383.
In the case of B20, the “Log2 (fold change)” value is reported as 3.1268.
With B21 the “Log2 (fold change)” value was 3.1882.
B22 was tested, and the “Log2 (fold change)” value was 2.6703.
In the case of B23, the “Log2 (fold change)” value is reported as 3.0229.
B24 was tested, and the “Log2 (fold change)” value was 3.5916.
For B25, the “Log2 (fold change)” value was 3.239.
For B26, the “Log2 (fold change)” value was 2.7072.
With B27 the “Log2 (fold change)” value was 3.1036.
